Results as given in US20170101454A1 (Novo Nordisk, published 2017).
Starred links: 1 amine or outer side, 2 acyl side, 3 side chain; linkers in the order of their positions; H or OH if unused. Non-standard residues stand in square brackets, D forms with d. Groups on a side chain read outwards from the residue. No end group written: not given here. *: point of attachment. C18 diacid = O=C(O)CCCCCCCCCCCCCCCCC(=O)*; γGlu = O=C(O)[C@H](CCC(=O)[*:2])N[*:1]; Ac4c = NC1(C(=O)O)CCC1; AEEA = NCCOCCOCC(=O)O; Aib = CC(C)(N)C(=O)O

Columns and labels:
human glucagon receptor [1] = biological target: T1, human glucagon receptor (human, UniProt P47871 26-477); assay: displacement of [125I]-glucagon from BHK membranes with human glucagon receptor, SPA, no serum albumin
T1 construct: whole, on cells; reporter assay used whole cells; also called hGCGR
T1 sequence (P47871 26-477): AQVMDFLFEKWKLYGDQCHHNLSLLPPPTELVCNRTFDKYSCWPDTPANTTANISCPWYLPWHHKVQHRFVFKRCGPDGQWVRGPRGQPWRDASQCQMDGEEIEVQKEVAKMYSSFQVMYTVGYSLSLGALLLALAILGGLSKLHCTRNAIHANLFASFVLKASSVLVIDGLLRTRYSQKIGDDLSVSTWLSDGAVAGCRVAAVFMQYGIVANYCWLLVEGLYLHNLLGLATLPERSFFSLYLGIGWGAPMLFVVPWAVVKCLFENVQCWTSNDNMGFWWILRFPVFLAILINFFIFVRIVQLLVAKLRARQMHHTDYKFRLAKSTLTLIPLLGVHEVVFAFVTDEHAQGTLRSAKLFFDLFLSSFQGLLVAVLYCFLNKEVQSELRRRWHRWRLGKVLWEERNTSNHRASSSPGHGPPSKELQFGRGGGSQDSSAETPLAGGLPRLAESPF

human glucagon receptor [2] = biological target: T1, human glucagon receptor; assay: cell-based or functional assay
human GLP-1 receptor [3] = biological target: T2, human GLP-1 receptor (human, UniProt P43220 24-463); assay: cell-based or functional assay
human GLP-1 receptor [4] = biological target: T2, human GLP-1 receptor; assay: displacement of [125I]-GLP-1-(7-36)NH2 from BHK membranes with human GLP-1R, SPA, no serum albumin

Binder | IC50 (human glucagon receptor [1]) [nM] | GlucagonR EC50 (pM), [Assay (I)(b)], CRE luciferase reporter, BHK cells (human glucagon receptor [2]) [pM] | GLP-1R EC50 (pM) [Assay (I)(a)], CRE luciferase reporter, BHK cells (human GLP-1 receptor [3]) [pM] | IC50 (human GLP-1 receptor [4]) [nM]
H[Aib]QGTFTSDLSKYLDARRARDFVQWLIK([γGlu-γGlu-γGlu-C18 diacid])T-NH2 (also called Chem. 15; Chem 15) | 1.7 | 7 | 4 | –
H[Aib]QGTFTSDLSKYLDARRARDFVQWLIK([AEEA-AEEA-γGlu-γGlu-γGlu-C18 diacid])T-NH2 (N-terminus assumed; SMILES CC[C@H](C)[C@H](NC(=O)[C@H](CC(C)C)NC(=O)[C@H](Cc1c[nH]c2ccccc12)NC(=O)[C@H](CCC(N)=O)NC(=O)[C@@H](NC(=O)[C@H](Cc1ccccc1)NC(=O)[C@H](CC(=O)O)NC(=O)[C@H](CCCNC(=N)N)NC(=O)[C@H](C)NC(=O)[C@H](CCCNC(=N)N)NC(=O)[C@H](CCCNC(=N)N)NC(=O)[C@H](C)NC(=O)[C@H](CC(=O)O)NC(=O)[C@H](CC(C)C)NC(=O)[C@H](Cc1ccc(O)cc1)NC(=O)[C@H](CCCCN)NC(=O)[C@H](CO)NC(=O)[C@H](CC(C)C)NC(=O)[C@H](CC(=O)O)NC(=O)[C@H](CO)NC(=O)[C@@H](NC(=O)[C@H](Cc1ccccc1)NC(=O)[C@@H](NC(=O)CNC(=O)[C@H](CCC(N)=O)NC(=O)C(C)(C)NC(=O)[C@@H](N)Cc1c[nH]cn1)[C@@H](C)O)[C@@H](C)O)C(C)C)C(=O)N[C@@H](CCCCNC(=O)COCCOCCNC(=O)COCCOCCNC(=O)CC[C@H](NC(=O)CC[C@H](NC(=O)CC[C@H](NC(=O)CCCCCCCCCCCCCCCCC(=O)O)C(=O)O)C(=O)O)C(=O)O)C(=O)N[C@H](C(N)=O)[C@@H](C)O, also called Chem. 5; Chem 5) | 6.7 | 29 | 5.5 | 0.1
H[Aib]QGTFTSDYSKYLDARRARDFVK([AEEA-AEEA-γGlu-γGlu-γGlu-C18 diacid])WLIST-NH2 (N-terminus assumed; SMILES CC[C@H](C)[C@H](NC(=O)[C@H](CC(C)C)NC(=O)[C@H](Cc1c[nH]c2ccccc12)NC(=O)[C@H](CCCCNC(=O)COCCOCCNC(=O)COCCOCCNC(=O)CC[C@H](NC(=O)CC[C@H](NC(=O)CC[C@H](NC(=O)CCCCCCCCCCCCCCCCC(=O)O)C(=O)O)C(=O)O)C(=O)O)NC(=O)[C@@H](NC(=O)[C@H](Cc1ccccc1)NC(=O)[C@H](CC(=O)O)NC(=O)[C@H](CCCNC(=N)N)NC(=O)[C@H](C)NC(=O)[C@H](CCCNC(=N)N)NC(=O)[C@H](CCCNC(=N)N)NC(=O)[C@H](C)NC(=O)[C@H](CC(=O)O)NC(=O)[C@H](CC(C)C)NC(=O)[C@H](Cc1ccc(O)cc1)NC(=O)[C@H](CCCCN)NC(=O)[C@H](CO)NC(=O)[C@H](Cc1ccc(O)cc1)NC(=O)[C@H](CC(=O)O)NC(=O)[C@H](CO)NC(=O)[C@@H](NC(=O)[C@H](Cc1ccccc1)NC(=O)[C@@H](NC(=O)CNC(=O)[C@H](CCC(N)=O)NC(=O)C(C)(C)NC(=O)[C@@H](N)Cc1c[nH]cn1)[C@@H](C)O)[C@@H](C)O)C(C)C)C(=O)N[C@@H](CO)C(=O)N[C@H](C(N)=O)[C@@H](C)O, also called Chem. 1; Chem 1) | 11.3 | 17.5 | 3.5 | 0.9
H[Aib]QGTFTSDYSKYLDAKRAREFVK([AEEA-AEEA-γGlu-γGlu-γGlu-C18 diacid])WLIST-NH2 (N-terminus assumed; SMILES CC[C@H](C)[C@H](NC(=O)[C@H](CC(C)C)NC(=O)[C@H](Cc1c[nH]c2ccccc12)NC(=O)[C@H](CCCCNC(=O)COCCOCCNC(=O)COCCOCCNC(=O)CC[C@H](NC(=O)CC[C@H](NC(=O)CC[C@H](NC(=O)CCCCCCCCCCCCCCCCC(=O)O)C(=O)O)C(=O)O)C(=O)O)NC(=O)[C@@H](NC(=O)[C@H](Cc1ccccc1)NC(=O)[C@H](CCC(=O)O)NC(=O)[C@H](CCCNC(=N)N)NC(=O)[C@H](C)NC(=O)[C@H](CCCNC(=N)N)NC(=O)[C@H](CCCCN)NC(=O)[C@H](C)NC(=O)[C@H](CC(=O)O)NC(=O)[C@H](CC(C)C)NC(=O)[C@H](Cc1ccc(O)cc1)NC(=O)[C@H](CCCCN)NC(=O)[C@H](CO)NC(=O)[C@H](Cc1ccc(O)cc1)NC(=O)[C@H](CC(=O)O)NC(=O)[C@H](CO)NC(=O)[C@@H](NC(=O)[C@H](Cc1ccccc1)NC(=O)[C@@H](NC(=O)CNC(=O)[C@H](CCC(N)=O)NC(=O)C(C)(C)NC(=O)[C@@H](N)Cc1c[nH]cn1)[C@@H](C)O)[C@@H](C)O)C(C)C)C(=O)N[C@@H](CO)C(=O)N[C@H](C(N)=O)[C@@H](C)O, also called Chem. 2; Chem 2) | 7.5 | 10 | 2 | 0.3
H[Aib]QGTFTSDYSKYLDARRAREFVK([AEEA-AEEA-γGlu-γGlu-γGlu-C18 diacid])WLIST-NH2 (N-terminus assumed; SMILES CC[C@H](C)[C@H](NC(=O)[C@H](CC(C)C)NC(=O)[C@H](Cc1c[nH]c2ccccc12)NC(=O)[C@H](CCCCNC(=O)COCCOCCNC(=O)COCCOCCNC(=O)CC[C@H](NC(=O)CC[C@H](NC(=O)CC[C@H](NC(=O)CCCCCCCCCCCCCCCCC(=O)O)C(=O)O)C(=O)O)C(=O)O)NC(=O)[C@@H](NC(=O)[C@H](Cc1ccccc1)NC(=O)[C@H](CCC(=O)O)NC(=O)[C@H](CCCNC(=N)N)NC(=O)[C@H](C)NC(=O)[C@H](CCCNC(=N)N)NC(=O)[C@H](CCCNC(=N)N)NC(=O)[C@H](C)NC(=O)[C@H](CC(=O)O)NC(=O)[C@H](CC(C)C)NC(=O)[C@H](Cc1ccc(O)cc1)NC(=O)[C@H](CCCCN)NC(=O)[C@H](CO)NC(=O)[C@H](Cc1ccc(O)cc1)NC(=O)[C@H](CC(=O)O)NC(=O)[C@H](CO)NC(=O)[C@@H](NC(=O)[C@H](Cc1ccccc1)NC(=O)[C@@H](NC(=O)CNC(=O)[C@H](CCC(N)=O)NC(=O)C(C)(C)NC(=O)[C@@H](N)Cc1c[nH]cn1)[C@@H](C)O)[C@@H](C)O)C(C)C)C(=O)N[C@@H](CO)C(=O)N[C@H](C(N)=O)[C@@H](C)O, also called Chem. 4; Chem 4) | 3.9 | 12 | 3 | 0.1
H[Ac4c]QGTFTSDLSKYLESRRAREFVQWLIK([AEEA-AEEA-γGlu-γGlu-C18 diacid])T-NH2 (also called Chem. 18; Chem 18) | 11.1 | 32 | 4 | 0.1
H[Aib]QGTFTSDYSKYLESRRARDFVK([AEEA-AEEA-γGlu-γGlu-γGlu-C18 diacid])WLIST-NH2 (N-terminus assumed; SMILES CC[C@H](C)[C@H](NC(=O)[C@H](CC(C)C)NC(=O)[C@H](Cc1c[nH]c2ccccc12)NC(=O)[C@H](CCCCNC(=O)COCCOCCNC(=O)COCCOCCNC(=O)CC[C@H](NC(=O)CC[C@H](NC(=O)CC[C@H](NC(=O)CCCCCCCCCCCCCCCCC(=O)O)C(=O)O)C(=O)O)C(=O)O)NC(=O)[C@@H](NC(=O)[C@H](Cc1ccccc1)NC(=O)[C@H](CC(=O)O)NC(=O)[C@H](CCCNC(=N)N)NC(=O)[C@H](C)NC(=O)[C@H](CCCNC(=N)N)NC(=O)[C@H](CCCNC(=N)N)NC(=O)[C@H](CO)NC(=O)[C@H](CCC(=O)O)NC(=O)[C@H](CC(C)C)NC(=O)[C@H](Cc1ccc(O)cc1)NC(=O)[C@H](CCCCN)NC(=O)[C@H](CO)NC(=O)[C@H](Cc1ccc(O)cc1)NC(=O)[C@H](CC(=O)O)NC(=O)[C@H](CO)NC(=O)[C@@H](NC(=O)[C@H](Cc1ccccc1)NC(=O)[C@@H](NC(=O)CNC(=O)[C@H](CCC(N)=O)NC(=O)C(C)(C)NC(=O)[C@@H](N)Cc1c[nH]cn1)[C@@H](C)O)[C@@H](C)O)C(C)C)C(=O)N[C@@H](CO)C(=O)N[C@H](C(N)=O)[C@@H](C)O, also called Chem. 11; Chem 11) | 52 | 428 | 8 | 0.5
H[Aib]QGTFTSDYSKYLDLRRARDFVK([AEEA-AEEA-γGlu-γGlu-γGlu-C18 diacid])WLIST-NH2 (N-terminus assumed; SMILES CC[C@H](C)[C@H](NC(=O)[C@H](CC(C)C)NC(=O)[C@H](Cc1c[nH]c2ccccc12)NC(=O)[C@H](CCCCNC(=O)COCCOCCNC(=O)COCCOCCNC(=O)CC[C@H](NC(=O)CC[C@H](NC(=O)CC[C@H](NC(=O)CCCCCCCCCCCCCCCCC(=O)O)C(=O)O)C(=O)O)C(=O)O)NC(=O)[C@@H](NC(=O)[C@H](Cc1ccccc1)NC(=O)[C@H](CC(=O)O)NC(=O)[C@H](CCCNC(=N)N)NC(=O)[C@H](C)NC(=O)[C@H](CCCNC(=N)N)NC(=O)[C@H](CCCNC(=N)N)NC(=O)[C@H](CC(C)C)NC(=O)[C@H](CC(=O)O)NC(=O)[C@H](CC(C)C)NC(=O)[C@H](Cc1ccc(O)cc1)NC(=O)[C@H](CCCCN)NC(=O)[C@H](CO)NC(=O)[C@H](Cc1ccc(O)cc1)NC(=O)[C@H](CC(=O)O)NC(=O)[C@H](CO)NC(=O)[C@@H](NC(=O)[C@H](Cc1ccccc1)NC(=O)[C@@H](NC(=O)CNC(=O)[C@H](CCC(N)=O)NC(=O)C(C)(C)NC(=O)[C@@H](N)Cc1c[nH]cn1)[C@@H](C)O)[C@@H](C)O)C(C)C)C(=O)N[C@@H](CO)C(=O)N[C@H](C(N)=O)[C@@H](C)O, also called Chem. 12; Chem 12) | 95.9 | 108 | 29 | 2.8
